Test results published in US20240279318A1 (NANJING LEGEND BIOTECH, published 2024).

Tests used:
[1] = molecular target: T1, AFP158/HLA-A*02:01 complex (human); assay: SPR, fold vs AS170036 VL1VH1
T1 construct: flowed as analyte in SPR
Experimental: (§1) The experiment was carried out as follows. The crude scFv protein were captured onto the sensorchip. Different concentrations (320, 160, 40 nM) of AFP158/HLA-A*02:01 complex flowed over the sensorchip surface, and were allowed to bind the antibody fragment for 100 s followed by injection of the running buffer to allow dissociation of the complex. On-rate (kd) and off-rate (kd) were calculated based on association and dissociation curve, and were used to estimate the equilibrium dissociation constant (KD).

[2] = molecular target: T1, AFP158/HLA-A*02:01 complex; assay: SPR, crude scFv captured, pMHC analyte;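 also: Peptide-MHC complex at several concentrations passed over captured scFv, association then buffer-driven dissociation, on- and off-rates fitted from the curves and KD estimated from them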
Experimental: as §1

[3] = molecular target: T2, AFP158/HLA-A*02:01 complex (human); assay: SPR, KD ratio to AS170036 VL1VH1;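 also: crude scFv captured on a sensor chip, peptide–HLA complex passed over at several concentrations, association then buffer dissociation, KD derived from on- and off-rates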
T2 construct: flowed over the chip in SPR; also called AFP158 pro
Experimental: as §1

[4] = molecular target: T2, AFP158/HLA-A*02:01 complex; assay: SPR, scFv captured, pMHC in flow;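 also: complex injected at several concentrations over crude scFv, association then running-buffer dissociation, KD estimated from kinetic on- and off-rate constants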
Experimental: as §1

[5] = molecular target: T2, AFP158/HLA-A*02:01 complex; assay: SPR, KD ratio to AS170036 VL1VH1; remark: listed apart in the source;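 also: crude scFv captured on a sensor chip, peptide–HLA complex passed over at several concentrations, association then buffer dissociation, KD derived from on- and off-rates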
Experimental: as §1

[6] = molecular target: T2, AFP158/HLA-A*02:01 complex; assay: SPR, scFv captured, pMHC in flow; remark: listed apart in the source;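 also: complex injected at several concentrations over crude scFv, association then running-buffer dissociation, KD estimated from kinetic on- and off-rate constants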
Experimental: as §1

Affinity increase [1] | Kd [2] | koff [2] | kon [2] | Affinity increase [3] | Kd [4] | Affinity increase [5] | Kd [6] | Binder
2.3 fold | 98 nM | 0.022 s⁻¹ | 230000 M⁻¹ s⁻¹ |  |  |  |  | AS170036 VL1VH1-VHG56F (scFv) scFv: QSALTQPRSVSGSPGQSVTISCAGTSSDVGSENYVSWYQQHPGKAPKLMIYQVNKRASGVPDRFSGSKSGNTASLTISGLQAEDEADYYCASYRSSDHNIVFGGGTKLTVLGGGGSGGGGSGGGGSEVQLVESGGGLVQPGGSLRLSCAASGFTFSSYAMSWVRQAPGKGLEWVSTINSGTFSPYYADSVKGRFTISRDNSKNTLYLQMNSLRAEDTAVYYCAKNFFDGSWFLGPPAMDYWGQGTLVTVSSHHHHHH
2.5 fold | 92 nM | 0.025 s⁻¹ | 270000 M⁻¹ s⁻¹ |  |  |  |  | AS170036 VL1VH1-VHG56N (scFv) scFv: QSALTQPRSVSGSPGQSVTISCAGTSSDVGSENYVSWYQQHPGKAPKLMIYQVNKRASGVPDRFSGSKSGNTASLTISGLQAEDEADYYCASYRSSDHNIVFGGGTKLTVLGGGGSGGGGSGGGGSEVQLVESGGGLVQPGGSLRLSCAASGFTFSSYAMSWVRQAPGKGLEWVSTINSGTNSPYYADSVKGRFTISRDNSKNTLYLQMNSLRAEDTAVYYCAKNFFDGSWFLGPPAMDYWGQGTLVTVSSHHHHHH
6.6 fold | 35 nM | 0.006 s⁻¹ | 170000 M⁻¹ s⁻¹ |  |  |  |  | AS170036 VL1VH1-VHG56Y (scFv) scFv: QSALTQPRSVSGSPGQSVTISCAGTSSDVGSENYVSWYQQHPGKAPKLMIYQVNKRASGVPDRFSGSKSGNTASLTISGLQAEDEADYYCASYRSSDHNIVFGGGTKLTVLGGGGSGGGGSGGGGSEVQLVESGGGLVQPGGSLRLSCAASGFTFSSYAMSWVRQAPGKGLEWVSTINSGTYSPYYADSVKGRFTISRDNSKNTLYLQMNSLRAEDTAVYYCAKNFFDGSWFLGPPAMDYWGQGTLVTVSSHHHHHH
5.5 fold | 42 nM | 0.012 s⁻¹ | 290000 M⁻¹ s⁻¹ |  |  |  |  | AS170036 VL1VH1-VHG108A (scFv) scFv: QSALTQPRSVSGSPGQSVTISCAGTSSDVGSENYVSWYQQHPGKAPKLMIYQVNKRASGVPDRFSGSKSGNTASLTISGLQAEDEADYYCASYRSSDHNIVFGGGTKLTVLGGGGSGGGGSGGGGSEVQLVESGGGLVQPGGSLRLSCAASGFTFSSYAMSWVRQAPGKGLEWVSTINSGTGSPYYADSVKGRFTISRDNSKNTLYLQMNSLRAEDTAVYYCAKNFFDGSWFLAPPAMDYWGQGTLVTVSSHHHHHH
5.5 fold | 42 nM | 0.015 s⁻¹ | 370000 M⁻¹ s⁻¹ |  |  |  |  | AS170036 VL1VH1-VHG108D (scFv) scFv: QSALTQPRSVSGSPGQSVTISCAGTSSDVGSENYVSWYQQHPGKAPKLMIYQVNKRASGVPDRFSGSKSGNTASLTISGLQAEDEADYYCASYRSSDHNIVFGGGTKLTVLGGGGSGGGGSGGGGSEVQLVESGGGLVQPGGSLRLSCAASGFTFSSYAMSWVRQAPGKGLEWVSTINSGTGSPYYADSVKGRFTISRDNSKNTLYLQMNSLRAEDTAVYYCAKNFFDGSWFLDPPAMDYWGQGTLVTVSSHHHHHH
4.1 fold | 56 nM | 0.02 s⁻¹ | 350000 M⁻¹ s⁻¹ |  |  |  |  | AS170036 VL1VH1-VHG108E (scFv) scFv: QSALTQPRSVSGSPGQSVTISCAGTSSDVGSENYVSWYQQHPGKAPKLMIYQVNKRASGVPDRFSGSKSGNTASLTISGLQAEDEADYYCASYRSSDHNIVFGGGTKLTVLGGGGSGGGGSGGGGSEVQLVESGGGLVQPGGSLRLSCAASGFTFSSYAMSWVRQAPGKGLEWVSTINSGTGSPYYADSVKGRFTISRDNSKNTLYLQMNSLRAEDTAVYYCAKNFFDGSWFLEPPAMDYWGQGTLVTVSSHHHHHH
4.7 fold | 58 nM | 0.013 s⁻¹ | 220000 M⁻¹ s⁻¹ |  |  |  |  | AS170036 VL1VH1-VHG108M (scFv) scFv: QSALTQPRSVSGSPGQSVTISCAGTSSDVGSENYVSWYQQHPGKAPKLMIYQVNKRASGVPDRFSGSKSGNTASLTISGLQAEDEADYYCASYRSSDHNIVFGGGTKLTVLGGGGSGGGGSGGGGSEVQLVESGGGLVQPGGSLRLSCAASGFTFSSYAMSWVRQAPGKGLEWVSTINSGTGSPYYADSVKGRFTISRDNSKNTLYLQMNSLRAEDTAVYYCAKNFFDGSWFLMPPAMDYWGQGTLVTVSSHHHHHH
2 fold | 140 nM | 0.045 s⁻¹ | 330000 M⁻¹ s⁻¹ |  |  |  |  | AS170036 VL1VH1-VHG108N (scFv) scFv: QSALTQPRSVSGSPGQSVTISCAGTSSDVGSENYVSWYQQHPGKAPKLMIYQVNKRASGVPDRFSGSKSGNTASLTISGLQAEDEADYYCASYRSSDHNIVFGGGTKLTVLGGGGSGGGGSGGGGSEVQLVESGGGLVQPGGSLRLSCAASGFTFSSYAMSWVRQAPGKGLEWVSTINSGTGSPYYADSVKGRFTISRDNSKNTLYLQMNSLRAEDTAVYYCAKNFFDGSWFLNPPAMDYWGQGTLVTVSSHHHHHH
 |  |  |  | 0.6 fold | 410 nM | 0.6 fold | 410 nM | LY34W (scFv, AS170036 VL1VH1 scFv mutein) scFv: QSALTQPRSVSGSPGQSVTISCAGTSSDVGSENWVSWYQQHPGKAPKLMIYQVNKRASGVPDRFSGSKSGNTASLTISGLQAEDEADYYCASYRSSDHNIVFGGGTKLTVLGGGGSGGGGSGGGGSEVQLVESGGGLVQPGGSLRLSCAASGFTFSSYAMSWVRQAPGKGLEWVSTINSGTGSPYYADSVKGRFTISRDNSKNTLYLQMNSLRAEDTAVYYCAKNFFDGSWFLGPPAMDYWGQGTLVTVSSHHHHHH
 |  |  |  | 1.8 fold | 140 nM | 1.8 fold | 140 nM | LY93F (scFv, AS170036 VL1VH1 scFv mutein) scFv: QSALTQPRSVSGSPGQSVTISCAGTSSDVGSENYVSWYQQHPGKAPKLMIYQVNKRASGVPDRFSGSKSGNTASLTISGLQAEDEADYYCASFRSSDHNIVFGGGTKLTVLGGGGSGGGGSGGGGSEVQLVESGGGLVQPGGSLRLSCAASGFTFSSYAMSWVRQAPGKGLEWVSTINSGTGSPYYADSVKGRFTISRDNSKNTLYLQMNSLRAEDTAVYYCAKNFFDGSWFLGPPAMDYWGQGTLVTVSSHHHHHH
 |  |  |  | 0.6 fold | 440 nM | 0.6 fold | 440 nM | LY93I (scFv, AS170036 VL1VH1 scFv mutein) scFv: QSALTQPRSVSGSPGQSVTISCAGTSSDVGSENYVSWYQQHPGKAPKLMIYQVNKRASGVPDRFSGSKSGNTASLTISGLQAEDEADYYCASIRSSDHNIVFGGGTKLTVLGGGGSGGGGSGGGGSEVQLVESGGGLVQPGGSLRLSCAASGFTFSSYAMSWVRQAPGKGLEWVSTINSGTGSPYYADSVKGRFTISRDNSKNTLYLQMNSLRAEDTAVYYCAKNFFDGSWFLGPPAMDYWGQGTLVTVSSHHHHHH
 |  |  |  | 1.3 fold | 180 nM | 1.3 fold | 180 nM | LY93L (scFv, AS170036 VL1VH1 scFv mutein) scFv: QSALTQPRSVSGSPGQSVTISCAGTSSDVGSENYVSWYQQHPGKAPKLMIYQVNKRASGVPDRFSGSKSGNTASLTISGLQAEDEADYYCASLRSSDHNIVFGGGTKLTVLGGGGSGGGGSGGGGSEVQLVESGGGLVQPGGSLRLSCAASGFTFSSYAMSWVRQAPGKGLEWVSTINSGTGSPYYADSVKGRFTISRDNSKNTLYLQMNSLRAEDTAVYYCAKNFFDGSWFLGPPAMDYWGQGTLVTVSSHHHHHH
 |  |  |  | 1.1 fold | 230 nM | 1.1 fold | 230 nM | LY93M (scFv, AS170036 VL1VH1 scFv mutein) scFv: QSALTQPRSVSGSPGQSVTISCAGTSSDVGSENYVSWYQQHPGKAPKLMIYQVNKRASGVPDRFSGSKSGNTASLTISGLQAEDEADYYCASMRSSDHNIVFGGGTKLTVLGGGGSGGGGSGGGGSEVQLVESGGGLVQPGGSLRLSCAASGFTFSSYAMSWVRQAPGKGLEWVSTINSGTGSPYYADSVKGRFTISRDNSKNTLYLQMNSLRAEDTAVYYCAKNFFDGSWFLGPPAMDYWGQGTLVTVSSHHHHHH
 |  |  |  | 0.6 fold | 380 nM | 0.6 fold | 380 nM | LY93Q (scFv, AS170036 VL1VH1 scFv mutein) scFv: QSALTQPRSVSGSPGQSVTISCAGTSSDVGSENYVSWYQQHPGKAPKLMIYQVNKRASGVPDRFSGSKSGNTASLTISGLQAEDEADYYCASQRSSDHNIVFGGGTKLTVLGGGGSGGGGSGGGGSEVQLVESGGGLVQPGGSLRLSCAASGFTFSSYAMSWVRQAPGKGLEWVSTINSGTGSPYYADSVKGRFTISRDNSKNTLYLQMNSLRAEDTAVYYCAKNFFDGSWFLGPPAMDYWGQGTLVTVSSHHHHHH
 |  |  |  | 0.5 fold | 450 nM | 0.5 fold | 450 nM | LY93V (scFv, AS170036 VL1VH1 scFv mutein) scFv: QSALTQPRSVSGSPGQSVTISCAGTSSDVGSENYVSWYQQHPGKAPKLMIYQVNKRASGVPDRFSGSKSGNTASLTISGLQAEDEADYYCASVRSSDHNIVFGGGTKLTVLGGGGSGGGGSGGGGSEVQLVESGGGLVQPGGSLRLSCAASGFTFSSYAMSWVRQAPGKGLEWVSTINSGTGSPYYADSVKGRFTISRDNSKNTLYLQMNSLRAEDTAVYYCAKNFFDGSWFLGPPAMDYWGQGTLVTVSSHHHHHH
 |  |  |  | 1 fold | 240 nM | 1 fold | 240 nM | LY93W (scFv, AS170036 VL1VH1 scFv mutein) scFv: QSALTQPRSVSGSPGQSVTISCAGTSSDVGSENYVSWYQQHPGKAPKLMIYQVNKRASGVPDRFSGSKSGNTASLTISGLQAEDEADYYCASWRSSDHNIVFGGGTKLTVLGGGGSGGGGSGGGGSEVQLVESGGGLVQPGGSLRLSCAASGFTFSSYAMSWVRQAPGKGLEWVSTINSGTGSPYYADSVKGRFTISRDNSKNTLYLQMNSLRAEDTAVYYCAKNFFDGSWFLGPPAMDYWGQGTLVTVSSHHHHHH
